Biological target: SARS-CoV-2 3CL^pro enzyme (Recombinant derived from Escherichia coli, ab277614, ABCAM; SEQ ID NO:2) (SARS-CoV-2) (UniProt P0DTC1)
Experiment: cell-based or functional assay

“myoglobin antibody (Monoclonal rabbit-derived, ab77232, ABCAM; binding to SEQ ID NO:5)” gave an oxidation peak shift (ΔEPeak) of pBQ of 0 mV.
